Values joined by “and” are separate entries in the source; they are usually repeats but may differ in a detail not shown here. Identical values can stand only once.

Experiment [1] deals with T1, recombinant human CD38 his tagged (extracellular domain) (human, UniProt P28907 43-300).
T1 construct: also called rhCD38; rhCD38-his; not shown: Histidine tag
As to the kind of experiment: SPR Biacore affinity, rhCD38-his. (In general: In SPR one partner is held on a chip, and binding of the other changes the refractive index at the surface.)

The target in experiment [2] is T1, recombinant human CD38 his tagged …. Nature of the experiment: Octet BLI, affinity, monovalent human CD38-HIS; IgG1. Background: Biolayer interferometry detects binding as a change in optical thickness at a sensor tip.
Experiment [3] has the same target. As to the kind of experiment: SPR Biacore 2000; IgG1 captured, rhCD38-his as analyte.
Method: Anti-human antibody was initially immobilised across all flow cells in analysis buffer (pH 7.4, 10mM HEPES, 150mM NaCl, 3mM EDTA, 0.05% Tween 20) to an RU of between 12,000-14,000 over 10 minutes. […] Dissociation was performed in analysis buffer over 10 minutes. Regeneration steps between sample concentrations were performed in 3M MgCl₂, three times for 0.5 minutes. A flow rate of 25 μl/min was maintained throughout the process. Kinetics data were fit using a global fit on the analysis software provided by Biacore with reference subtraction.
Experiment [4] has as its target T2, human CD38 (full length, on cells) (human, UniProt P28907 1-300).
T2 construct: Endogenous on Daudi, Raji, Jurkat cells, human PBMC/T cells; full-length CD38 expressed in HEK-293T cells for alanine scanning; also called Uniprot P28907
Nature of the experiment: flow cytometry, binding to Daudi cells. Background: A flow cytometer gives signals particle by particle.

The target in experiment [5] is T1, recombinant human CD38 his tagged …. As to the kind of experiment: Octet BLI affinity, rhCD38; Octet value of Table 5 (variant comparison); Table 1A gives 3.38E-09 for IgG1.
In experiment [6] the target is T2, human CD38 (full length, on cells). Nature of the experiment: cell-based or functional assay.
The target is the same in experiment [7]. As to the kind of experiment: cell-based or functional assay. The source holds these as a separate data set.
The target of experiment [8] is T1, recombinant human CD38 his tagged …. As to the kind of experiment: summary, human CD38 extracellular protein.

B1: aCD38-b-329 (human IgG1) (antibody, V domains shown)
VH: QLQLQESGPGLVKPSETLSLTCTVSGGSISSSDYYWGWIRQPPGKGLEWIGSIYYSGSTYYNPSLKSRVTISVDTSKNQFSLKLSSVTAADTAVYYCARGQYSSGWYAYPFDMWGQGTMVTVSS
VL: EIVLTQSPGTLSLSPGERATLSCRASQSVRSSYLAWYQQKPGQAPRLLIYGASSRATGIPDRFSGSGSGTDFTLTISRLEPEDFAVYYCQQDGAVFTFGGGTKVEIK
notes: Human IgG1
By Kd is commonly meant the concentration at which binding is half-saturated. As a reminder, the EC50 is the midpoint of the concentration-response curve. Read a low EC50 as an effect from little substance. As to B1, the Kd in experiment [1] is 0.62 nM; in experiment [2] it was 3.38 nM; in experiment [3], 0.62 nM; in experiment [5], 2.38 nM; in experiment [8] it was approximately 1 nM. The molecule also yielded an EC50 in experiment [4] of 734 ng/mL. Besides, the “Max MFI” value in experiment [4] was found to be 2510 MFI. Further, the “ADCC target lysis EC50” value in experiment [6] stood at 6.2 ng/mL. In experiment [6], the “ADCC target lysis, max. % lysis” value was found to be 49%. For the same molecule, in experiment [7], the “ADCC EC50, Daudi target cells” value was 11 ng/mL and 6.2 ng/mL.
